Data published in publication PMC11603662.

Assays:
CaV2.1-F1406C (human) = test: co-IP; HEK293T cells coexpressing the two proteins, 10 uM MG132 for 24 h; lysates immunoprecipitated with anti-Myc on protein A/G sepharose, 16 h at 4 C; immunoblot
[1] = molecular target: Myc-tagged human long carboxy-terminal CaV2.1 (CaV2.1-6myc) (human) (UniProt O00555); test: as above

Chain of CaV2.1-F1406C (human) (O00555 whole entry, stated change not applied): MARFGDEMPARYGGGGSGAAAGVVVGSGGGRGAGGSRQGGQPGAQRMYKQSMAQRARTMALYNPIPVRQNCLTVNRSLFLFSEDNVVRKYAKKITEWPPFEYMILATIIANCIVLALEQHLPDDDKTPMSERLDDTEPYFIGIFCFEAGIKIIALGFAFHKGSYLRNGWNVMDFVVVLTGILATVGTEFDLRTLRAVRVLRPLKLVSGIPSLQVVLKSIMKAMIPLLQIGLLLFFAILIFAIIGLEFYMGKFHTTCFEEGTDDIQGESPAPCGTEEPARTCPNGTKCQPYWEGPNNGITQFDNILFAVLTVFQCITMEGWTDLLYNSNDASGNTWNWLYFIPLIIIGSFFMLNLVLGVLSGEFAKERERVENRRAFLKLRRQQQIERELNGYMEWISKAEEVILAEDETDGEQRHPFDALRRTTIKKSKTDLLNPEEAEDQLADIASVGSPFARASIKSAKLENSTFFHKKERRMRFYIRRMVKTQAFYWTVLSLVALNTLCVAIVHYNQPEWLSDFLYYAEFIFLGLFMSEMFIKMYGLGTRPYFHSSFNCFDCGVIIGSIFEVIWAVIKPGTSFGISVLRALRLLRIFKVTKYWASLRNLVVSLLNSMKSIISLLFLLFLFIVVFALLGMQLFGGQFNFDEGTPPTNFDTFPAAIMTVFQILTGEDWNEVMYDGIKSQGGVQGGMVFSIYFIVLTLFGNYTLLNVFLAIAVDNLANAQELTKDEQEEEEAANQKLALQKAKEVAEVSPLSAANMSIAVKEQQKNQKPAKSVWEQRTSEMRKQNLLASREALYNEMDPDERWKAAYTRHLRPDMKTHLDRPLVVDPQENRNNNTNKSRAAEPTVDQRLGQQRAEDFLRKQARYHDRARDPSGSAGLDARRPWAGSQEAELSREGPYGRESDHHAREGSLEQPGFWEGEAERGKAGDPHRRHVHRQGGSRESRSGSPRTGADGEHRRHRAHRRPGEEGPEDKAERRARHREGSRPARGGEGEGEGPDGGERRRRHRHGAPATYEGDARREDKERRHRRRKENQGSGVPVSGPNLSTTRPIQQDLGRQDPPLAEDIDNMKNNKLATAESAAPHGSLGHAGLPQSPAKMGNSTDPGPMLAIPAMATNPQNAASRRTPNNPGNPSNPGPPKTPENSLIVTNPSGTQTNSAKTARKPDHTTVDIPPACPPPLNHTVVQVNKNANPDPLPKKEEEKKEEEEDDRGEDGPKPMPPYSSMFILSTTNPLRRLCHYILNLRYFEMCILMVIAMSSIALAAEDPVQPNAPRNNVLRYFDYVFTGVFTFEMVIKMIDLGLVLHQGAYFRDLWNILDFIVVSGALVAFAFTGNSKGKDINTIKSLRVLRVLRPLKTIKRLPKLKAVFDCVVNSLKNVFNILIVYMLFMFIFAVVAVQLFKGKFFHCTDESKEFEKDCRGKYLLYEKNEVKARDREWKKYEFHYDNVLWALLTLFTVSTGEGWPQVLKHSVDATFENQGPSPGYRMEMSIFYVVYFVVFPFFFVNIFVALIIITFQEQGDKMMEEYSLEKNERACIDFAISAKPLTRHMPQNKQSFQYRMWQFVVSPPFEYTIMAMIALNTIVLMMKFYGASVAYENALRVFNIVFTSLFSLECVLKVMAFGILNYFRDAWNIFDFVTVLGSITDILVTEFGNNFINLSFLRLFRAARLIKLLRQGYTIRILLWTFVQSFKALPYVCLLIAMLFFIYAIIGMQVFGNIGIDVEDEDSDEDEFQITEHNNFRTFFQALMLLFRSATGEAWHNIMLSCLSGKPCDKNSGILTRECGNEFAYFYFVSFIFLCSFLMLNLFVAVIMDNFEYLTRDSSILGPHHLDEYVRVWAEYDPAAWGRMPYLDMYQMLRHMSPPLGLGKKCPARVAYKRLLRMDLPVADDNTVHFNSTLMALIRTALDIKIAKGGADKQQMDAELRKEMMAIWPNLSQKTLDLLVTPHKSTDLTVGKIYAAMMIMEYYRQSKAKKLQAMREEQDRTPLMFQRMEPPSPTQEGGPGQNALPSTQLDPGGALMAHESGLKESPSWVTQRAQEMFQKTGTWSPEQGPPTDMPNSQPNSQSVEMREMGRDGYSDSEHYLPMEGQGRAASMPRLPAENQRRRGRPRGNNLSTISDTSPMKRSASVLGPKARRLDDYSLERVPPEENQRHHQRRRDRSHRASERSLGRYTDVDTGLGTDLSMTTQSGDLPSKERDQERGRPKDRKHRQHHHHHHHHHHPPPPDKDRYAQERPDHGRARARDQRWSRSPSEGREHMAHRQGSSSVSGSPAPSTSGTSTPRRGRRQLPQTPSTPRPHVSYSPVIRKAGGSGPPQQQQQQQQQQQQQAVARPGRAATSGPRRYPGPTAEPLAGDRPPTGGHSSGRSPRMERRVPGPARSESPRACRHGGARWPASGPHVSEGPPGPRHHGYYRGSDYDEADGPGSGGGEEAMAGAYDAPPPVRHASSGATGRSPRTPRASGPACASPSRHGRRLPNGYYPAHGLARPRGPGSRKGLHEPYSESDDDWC

Work on HA-tagged rat Pin1 (HA-Pin1) (enzyme) yielded a normalized coimmunoprecipitated Pin1 protein level (relative to CaV2.1 WT) (CaV2.1-F1406C (human)) of 1.32 and a normalized coimmunoprecipitated Pin1 protein level (relative to CaV2.1 WT) [1] of 1.
